Source: patent publication US20240059796A1 (SHENZHEN MAJORY BIOTECHNOLOGY, published 2024)

Assays:
[1] = target: TGF-β1 (inducer of the TGF-β/Smad reporter signal) (UniProt P01137 279-390, limits assumed); experiment: cell-based or functional assay
[2] = target: T1, fusion protein TGF-β1-His (human, UniProt P01137 279-390); experiment: indirect ELISA, TGF-β1-His coated
T1 construct: 118 aa: a 112-residue TGF-β1 segment with a C-terminal His6 tag
Description: (§1) The ELISA plate was coated with TGF-β1-His and incubated at 37° C. for 3 hours. After rinsing the plate, 1% BSA was used for blocking for one hour. After rinsing the plate, serially diluted antibody was added and incubated at 37° C. for 60 minutes. After rinsing the plate, enzyme-labeled donkey anti-human IgG secondary antibody working solution was added and incubated at 37° C. for 30 minutes. After rinsing the plate, TMB developing solution was added to develop for 5 minutes in a dark place, and termination solution was added to terminate the chromogenic reaction. The ELISA plate was immediately put into an ELISA reader, and the optical wavelength of 450 nm was selected to read the OD value of each well of the ELISA plate. The data was analyzed and processed with SoftMax Pro software.

[3] = target: T1, fusion protein TGF-β1-His; experiment: competitive ELISA, TGF-β1-His coated; competitor human TGFβRII-ECD-Fc-biotin 0.1 µg/ml
Description: (§2) The ELISA plate was coated with TGF-β1-His and incubated at 37° C. for 3 hours. After rinsing the plate, 1% BSA was used for blocking at 37° C. for one hour. After rinsing the plate, serially diluted antibody and human TGFβRII-ECD-Fc-biotin (final concentration 0.1 μg/ml) were added and incubated at room temperature for 2 hours. After rinsing the plate, HRP labeled streptavidin SA-HRP (1:2000) working solution was added and incubated at 37° C. for 30 minutes. After rinsing the plate, TMB developing solution was added to develop for 5 min in a dark place, and termination solution was added to terminate the chromogenic reaction. The ELISA plate was immediately put into an ELISA reader, and the optical wavelength of 450 nm was selected to read the OD value of each well of the ELISA plate. The data was analyzed and processed with SoftMax Pro software.

[4] = target: T2, human TGF-β1 (immobilised on the CM5 chip, Biacore) (human, UniProt P01137 279-390); experiment: SPR (Biacore), human TGF-β1 amine-coupled to CM5, 1:1 fit
T2 construct: also called antigen TGF-β1
T2 sequence (P01137 279-390 limits assumed): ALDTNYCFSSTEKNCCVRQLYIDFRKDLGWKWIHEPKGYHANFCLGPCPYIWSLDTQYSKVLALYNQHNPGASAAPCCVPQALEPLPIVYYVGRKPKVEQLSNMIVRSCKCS
Description: The affinity constants of CT101 with human TGF-β1 were measured with a Biacore system for molecular interaction. HBS-EP served as buffer, human TGF-β1 was immobilized on the surface of CM5 chip by Bicaore standard amino coupling. Binding of antibody CT101 to human TGF-β1 was performed, where the concentration of antibody CT101 was 8-250 nM (2 fold dilution), the flow rate was 30 μl/min, the binding duration was 120 s, and the dissociation duration was 880 s. The chip was regenerated using 10 mM glycine, where PH was 2.7, the flow rate was 30 μl/min, and the duration was 120 s. The affinity constants were obtained by data fitting analysis with a 1:1 model. Data was collected with Biacore Control 2.0 software and analyzed using Biacore T200 Evaluation 2.0 software. The kinetics parameters of antibodies CT102 and CAT192 binding to human TGF-β1 are shown in Table 2, and the test results of specific kinetic parameters of antibody CT101 to human TGF-β1 are shown in FIG. 21.

[5] = target: T1, fusion protein TGF-β1-His; experiment: indirect ELISA, plate coated with TGF-β1-His, detection with enzyme-labeled anti-human IgG
Description: as §1

[6] = target: T1, fusion protein TGF-β1-His; experiment: competitive ELISA, plate coated with TGF-β1-His, antibody titrated against human TGFβRII-ECD-Fc-biotin (0.1 µg/ml), detection with SA-HRP
Description: as §2

[7] = target: T2, human TGF-β1 (immobilised on the CM5 …); experiment: SPR (Biacore), human TGF-β1 amine-coupled to CM5, antibody 250 nM, 1:1 fit
Description: The affinity constants of CT101, CT102, CT111, and CT112 with human TGF-β1 were measured with a Biacore molecular interaction meter. HBS-EP served as buffer, human TGF-β1 was immobilized on the surface of CM5 chip by Bicaore standard amino coupling. Binding of antibodies CT101, CT102, CT111, and CT112 to human TGF-β1 was performed, where the concentration of antibodies CT101, CT102, CT111, and CT112 was 250 nM, the flow rate was 30 μl/min, the binding duration was 120 s, and the dissociation duration was 880 s. The chip was regenerated by using 10 mM glycine, where PH was 2.7, the flow rate was 30 μl/min, and the duration was 120 s. The affinity constants were obtained by data fitting analysis with a 1:1 model. Data was collected with Biacore Control 2.0 software and analyzed using Biacore T200 Evaluation 2.0 software. The kinetics parameters of antibodies CT101, CT102, CT111, and CT112 binding to human TGF-β1 are shown in Table 2, and the test results of specific kinetic parameters of antibodies CT101, CT102, CT111, and CT112 binding to human TGF-β1 are shown in FIG. 7.

Sequence of TGF-β1 (inducer of the TGF-β/Smad reporter signal) (P01137 279-390 limits assumed): as above
T1 sequence (P01137 other isoform, or with tags, fused parts or gaps limits assumed): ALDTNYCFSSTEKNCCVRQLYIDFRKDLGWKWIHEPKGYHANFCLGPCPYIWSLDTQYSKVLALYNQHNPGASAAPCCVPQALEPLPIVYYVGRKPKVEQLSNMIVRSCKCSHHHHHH

B1: anti-TGF-β1 antibody CAT192 (antibody, human IgG4, V domains shown)
VH: EVQLVESGGGVVQPGRSLRLSCAASGFTFSSYGMHWVRQAPGKELEWVAVISYDGSIKYYADSVKGRFTISRDNSKNTLYLQMNSLRAEDTAVYYCARTGEYSGYDTDPQYSWGQGTTVTVSS
VL: EIVLTQSPSSLSASVGDRVTITCRSSQGIGDDLGWYQQKPGKAPILLIYGTSTLQSGVPSRFSGSGSGTDFTLTINSLQPEDFATYYCLQDSNYPLTFGGGTRLEIK
notes: The background section calls CAT192 a human IgG4 monoclonal antibody
In the case of B1, the “IC50, TGF-β/Smad luciferase reporter in HEK293-CD4 cells” value [1] is reported as 0.25 nM, the “IC50, TGF-β/Smad luciferase reporter in HEK293 cells” value (“IC50 … in HEK293 cells” for short) [1] is reported as about 0.25 nM and the EC50 [2] is reported as 0.0845 nM. The IC50 [3] was 0.105 nM, the Kd [4] was 0.8 nM and the koff [4] was 2.4e-05 s⁻¹. For the same binder, the kon [4] was 30000 M⁻¹ s⁻¹, the “EC50 (read off the curve)” value [5] was about 0.08 nM and the “IC50 (read off the curve)” value [6] was about 0.09 nM.

B2: bifunctional antibody CT111 (bispecific antibody, human IgG4 S228P, kappa)
light: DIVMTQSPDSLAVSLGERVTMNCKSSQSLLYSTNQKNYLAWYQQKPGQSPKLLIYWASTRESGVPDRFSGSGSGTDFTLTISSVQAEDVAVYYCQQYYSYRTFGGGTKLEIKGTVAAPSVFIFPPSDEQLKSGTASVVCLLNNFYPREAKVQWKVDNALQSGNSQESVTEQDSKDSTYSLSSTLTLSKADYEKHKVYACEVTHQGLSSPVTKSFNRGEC
heavy: QVQLQQSGPEVVKPGASVKMSCKASGYTFTSYVIHWVRQKPGQGLDWIGYINPYNDGTDYDEKFKGKATLTSDTSTSTAYMELSSLRSEDTAVYYCAREKDNYATGAWFAYWGQGTLVTVSSASTKGPSVFPLAPCSRSTSESTAALGCLVKDYFPEPVTVSWNSGALTSGVHTFPAVLQSSGLYSLSSVVTVPSSSLGTKTYTCNVDHKPSNTKVDKRVESKYGPPCPPCPAPEFLGGPSVFLFPPKPKDTLMISRTPEVTCVVVDVSQEDPEVQFNWYVDGVEVHNAKTKPREEQFNSTYRVVSVLTVLHQDWLNGKEYKCKVSNKGLPSSIEKTISKAKGQPREPQVYTLPPCQEEMTKNQVSLWCLVKGFYPSDIAVEWESNGQPENNYKTTPPVLDSDGSFFLYSALTVDKSRWQEGNVFSCSVMHEALHNHYTQKSLSLSLGK
chain: EVQLVESGGGVVQPGRSLRLSCAASGFTFSSYGMHWVRQAPGKELEWVAVISYDGSIKYYADSVKGRFTISRDNSKNTLYLQMNSLRAEDTAVYYCARTGEYSGYDTDPQYSWGQGTTVTVSSGGGGSGGGGSGGGGSEIVLTQSPSSLSASVGDRVTITCRASQGIGDDLGWYQQKPGKAPILLIYGTSTLQSGVPSRFSGSGSGTDFTLTINSLQPEDFATYYCLQDSNYPLTFGGGTRLEIKYGPPCPPCPAPEFLGGPSVFLFPPKPKDTLMISRTPEVTCVVVDVSQEDPEVQFNWYVDGVEVHNAKTKPREEQFNSTYRVVSVLTVLHQDWLNGKEYKCKVSNKGLPSSIEKTISKAKGQPREPQVCTLPPSQEEMTKNQVSLSCAVKGFYPSDIAVEWESNGQPENNYKTTPPVLDSDGSFKLVSRLTVDKSRWQEGNVFSCSVMHEALHNHYTQKSLSLSLGK
B2 was tested, and the “IC50 … in HEK293 cells” value [1] was about 0.8 nM.

B3: bifunctional antibody CT112 (bispecific antibody, human IgG4 S228P, kappa)
light: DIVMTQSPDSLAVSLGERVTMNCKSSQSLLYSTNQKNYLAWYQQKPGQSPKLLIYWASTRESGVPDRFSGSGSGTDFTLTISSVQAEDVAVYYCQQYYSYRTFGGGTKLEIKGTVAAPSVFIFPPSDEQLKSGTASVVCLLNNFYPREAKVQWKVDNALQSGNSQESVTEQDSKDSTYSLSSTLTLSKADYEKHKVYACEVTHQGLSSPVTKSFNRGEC
heavy: B2 heavy
chain 1: EVQLVESGGGVVQPGRSLRLSCAASGFTFSSYGMHWVRQAPGKELEWVAVISYDGSIKYYADSVKGRFTISRDNSKNTLYLQMNSLRAEDTAVYYCARTGEYSGYDTDPQYSWGQGTTVTVSGGSGTVAAPSVFIFPPSDEQLKSGTASVVCLLNNFYPREAKVQWKVDNALQSGNSQESVTEQDSKDSTYSLSSTLTLSKADYEKHKVYACEVTHQGLSSPVTKSFNRGECSKYGPPCPPCPAPEFLGGPSVFLFPPKPKDTLMISRTPEVTCVVVDVSQEDPEVQFNWYVDGVEVHNAKTKPREEQFNSTYRVVSVLTVLHQDWLNGKEYKCKVSNKGLPSSIEKTISKAKGQPREPQVCTLPPSQEEMTKNQVSLSCAVKGFYPSDIAVEWESNGQPENNYKTTPPVLDSDGSFKLVSRLTVDKSRWQEGNVFSCSVMHEALHNHYTQKSLSLSLGK
chain 2: EIVLTQSPSSLSASVGDRVTITCRSSQGIGDDLGWYQQKPGKAPILLIYGTSTLQSGVPSRFSGSGSGTDFTLTINSLQPEDFATYYCLQDSNYPLTFGGGTRLEIKGSSASTKGPSVFPLAPCSRSTSESTAALGCLVKDYFPEPVTVSWNSGALTSGVHTFPAVLQSSGLYSLSSVVTVPSSSLGTKTYTCNVDHKPSNTKVDKRVES
notes: also called IgG CrossMab
With B3 the “IC50 … in HEK293 cells” value [1] was about 1 nM, the Kd [7] was 1.97 nM and the koff [7] was 5.9e-05 s⁻¹. For the same binder, the kon [7] was 30000 M⁻¹ s⁻¹.
